Assay results as given in patent US20240034774A1 (Gilead, published 2024).

What was measured:
gp120 CAAN = gp120 CAAN (HIV (CAAN)); test: single-point ELISA at EC50 conc. of A-1
gp120 Bal = gp120 Bal (HIV (Bal)); test: single-point ELISA at EC50 conc. of A-1
gp120 SHIV SF162 P3 = gp120 SHIV SF162 P3 (SHIV SF162 P3); test: single-point ELISA at EC50 conc. of A-1
BSA = BSA (UniProt P02769 25-607); test: single-point ELISA, BSA control

Binder	ELISA A450 (gp120 CAAN)	ELISA A450 (gp120 Bal)	ELISA A450 (gp120 SHIV SF162 P3)	ELISA A450 (BSA)
1.1.18-1 (antibody, human IgG1, kappa) heavy: QVQLLQSGAAVTKPGASVRVSCEASGYNIRDYFIHWWRQAPGQGLQWVGWINPKTGQPNNPRQFQGRVSLTRHASWDFDTFSFYMDLKALRSDDTAVYFCARQRSDYWDFDVWGSGTQVTVSSASTKGPSVFPLAPSSKSTSGGTAALGCLVKDYFPEPVTVSWNSGALTSGVHTFPAVLQSSGLYSLSSVVTVPSSSLGTQTYICNVNHKPSNTKVDKKVEPKSCDKTHTCPPCPAPELLAGPDVFLFPPKPKDTLMISRTPEVTCVVVDVSHEDPEVKFNWYVDGVEVHNAKTKPREEQYNSTYRVVSVLTVLHQDWLNGKEYKCKVSNKALPLPEEKTISKAKGQPREPQVYTLPPSREEMTKNQVSLTCLVKGFYPSDIAVEWESNGQPENNYKTTPPVLDSDGSFFLYSKLTVDKSRWQQGNVFSCSVLHEALHSHYTQKSLSLSPGK light: DIQMTQSPSSLSASVGDTVTITCQANGYLNWYQQRRGKAPKLLIYDGSKLERGVPSRFSGRRWGQEYNLTINNLQPEDIATYFCQVYEFVSPGTRLDLKRTVAAPSVFIFPPSDEQLKSGTASVVCLLNNFYPREAKVQWKVDNALQSGNSQESVTEQDSKDSTYSLSSTLTLSKADYEKHKVYACEVTHQGLSSPVTKSFNRGEC	0.92 A450	0.92 A450	0.94 A450	0.06 A450
1.1.21-1 (antibody, human IgG1, kappa) heavy: QVQLLQSGAAVTKPGASVRVSCEASGYNIRDYFIHWWRQAPGQGLQWVGWINPKTGQPNNPRQFQGRVSLTRHASWDFDTFSFYMDLKALRSDDTAVYFCARQRSDYWDFDVWGSGTQVTVSSASTKGPSVFPLAPSSKSTSGGTAALGCLVKDYFPEPVTVSWNSGALTSGVHTFPAVLQSSGLYSLSSVVTVPSSSLGTQTYICNVNHKPSNTKVDKKVEPKSCDKTHTCPPCPAPELLAGPDVFLFPPKPKDTLMISRTPEVTCVVVDVSHEDPEVKFNWYVDGVEVHNAKTKPREEQYNSTYRVVSVLTVLHQDWLNGKEYKCKVSNKALPLPEEKTISKAKGQPREPQVYTLPPSREEMTKNQVSLTCLVKGFYPSDIAVEWESNGQPENNYKTTPPVLDSDGSFFLYSKLTVDKSRWQQGNVFSCSVLHEALHSHYTQKSLSLSPGK light: DIQMTQSPSSLSASVGDTVTITCQANGYLNWYQQRRGKAPKLLIYDGSKLERGVPSRFSGRRWGQEYNLTINNLQPEDIATYFCQVYEFVGPGTNLDLKRTVAAPSVFIFPPSDEQLKSGTASVVCLLNNFYPREAKVQWKVDNALQSGNSQESVTEQDSKDSTYSLSSTLTLSKADYEKHKVYACEVTHQGLSSPVTKSFNRGEC	0.99 A450	0.98 A450	1.03 A450	0.06 A450
1.1.24-1 (antibody, human IgG1, kappa) heavy: QVQLLQSGAAVTKPGASVRVSCEASGYNIRDYFIHWWRQAPGQGLQWVGWINPKTGQPNNPRQFQGRVSLTRHASWDFDTFSFYMDLKALRSDDTAVYFCARQRSDYWDFDVWGSGTQVTVSSASTKGPSVFPLAPSSKSTSGGTAALGCLVKDYFPEPVTVSWNSGALTSGVHTFPAVLQSSGLYSLSSVVTVPSSSLGTQTYICNVNHKPSNTKVDKKVEPKSCDKTHTCPPCPAPELLAGPDVFLFPPKPKDTLMISRTPEVTCVVVDVSHEDPEVKFNWYVDGVEVHNAKTKPREEQYNSTYRVVSVLTVLHQDWLNGKEYKCKVSNKALPLPEEKTISKAKGQPREPQVYTLPPSREEMTKNQVSLTCLVKGFYPSDIAVEWESNGQPENNYKTTPPVLDSDGSFFLYSKLTVDKSRWQQGNVFSCSVLHEALHSHYTQKSLSLSPGK light: DIQMTQSPSSLSASVGDTVTITCQANGYLNWYQQRRGKAPKLLIYDGSKLERGVPSRFSGRRWGQEYNLTINNLQPEDIATYFCQVYEFVVPGTRVDLKRTVAAPSVFIFPPSDEQLKSGTASVVCLLNNFYPREAKVQWKVDNALQSGNSQESVTEQDSKDSTYSLSSTLTLSKADYEKHKVYACEVTHQGLSSPVTKSFNRGEC	0.98 A450	0.88 A450	0.97 A450	0.06 A450
1.1.20-1 (antibody, human IgG1, kappa) heavy: QVQLLQSGAAVTKPGASVRVSCEASGYNIRDYFIHWWRQAPGQGLQWVGWINPKTGQPNNPRQFQGRVSLTRHASWDFDTFSFYMDLKALRSDDTAVYFCARQRSDYWDFDVWGSGTQVTVSSASTKGPSVFPLAPSSKSTSGGTAALGCLVKDYFPEPVTVSWNSGALTSGVHTFPAVLQSSGLYSLSSVVTVPSSSLGTQTYICNVNHKPSNTKVDKKVEPKSCDKTHTCPPCPAPELLAGPDVFLFPPKPKDTLMISRTPEVTCVVVDVSHEDPEVKFNWYVDGVEVHNAKTKPREEQYNSTYRVVSVLTVLHQDWLNGKEYKCKVSNKALPLPEEKTISKAKGQPREPQVYTLPPSREEMTKNQVSLTCLVKGFYPSDIAVEWESNGQPENNYKTTPPVLDSDGSFFLYSKLTVDKSRWQQGNVFSCSVLHEALHSHYTQKSLSLSPGK light: DIQMTQSPSSLSASVGDTVTITCQANGYLNWYQQRRGKAPKLLIYDGSKLERGVPSRFSGRRWGQEYNLTINNLQPEDIATYFCQVYEFVVPGTNLDLKRTVAAPSVFIFPPSDEQLKSGTASVVCLLNNFYPREAKVQWKVDNALQSGNSQESVTEQDSKDSTYSLSSTLTLSKADYEKHKVYACEVTHQGLSSPVTKSFNRGEC	0.95 A450	0.94 A450	1.01 A450	0.07 A450
1.1.19-1 (antibody, human IgG1, kappa) heavy: QVQLLQSGAAVTKPGASVRVSCEASGYNIRDYFIHWWRQAPGQGLQWVGWINPKTGQPNNPRQFQGRVSLTRHASWDFDTFSFYMDLKALRSDDTAVYFCARQRSDYWDFDVWGSGTQVTVSSASTKGPSVFPLAPSSKSTSGGTAALGCLVKDYFPEPVTVSWNSGALTSGVHTFPAVLQSSGLYSLSSVVTVPSSSLGTQTYICNVNHKPSNTKVDKKVEPKSCDKTHTCPPCPAPELLAGPDVFLFPPKPKDTLMISRTPEVTCVVVDVSHEDPEVKFNWYVDGVEVHNAKTKPREEQYNSTYRVVSVLTVLHQDWLNGKEYKCKVSNKALPLPEEKTISKAKGQPREPQVYTLPPSREEMTKNQVSLTCLVKGFYPSDIAVEWESNGQPENNYKTTPPVLDSDGSFFLYSKLTVDKSRWQQGNVFSCSVLHEALHSHYTQKSLSLSPGK light: DIQMTQSPSSLSASVGDTVTITCQANGYLNWYQQRRGKAPKLLIYDGSKLERGVPSRFSGRRWGQEYNLTINNLQPEDIATYFCQVYEFVTPGTRLDLKRTVAAPSVFIFPPSDEQLKSGTASVVCLLNNFYPREAKVQWKVDNALQSGNSQESVTEQDSKDSTYSLSSTLTLSKADYEKHKVYACEVTHQGLSSPVTKSFNRGEC	1.05 A450	1.03 A450	1.12 A450	0.06 A450
1.1.22-1 (antibody, human IgG1, kappa) heavy: QVQLLQSGAAVTKPGASVRVSCEASGYNIRDYFIHWWRQAPGQGLQWVGWINPKTGQPNNPRQFQGRVSLTRHASWDFDTFSFYMDLKALRSDDTAVYFCARQRSDYWDFDVWGSGTQVTVSSASTKGPSVFPLAPSSKSTSGGTAALGCLVKDYFPEPVTVSWNSGALTSGVHTFPAVLQSSGLYSLSSVVTVPSSSLGTQTYICNVNHKPSNTKVDKKVEPKSCDKTHTCPPCPAPELLAGPDVFLFPPKPKDTLMISRTPEVTCVVVDVSHEDPEVKFNWYVDGVEVHNAKTKPREEQYNSTYRVVSVLTVLHQDWLNGKEYKCKVSNKALPLPEEKTISKAKGQPREPQVYTLPPSREEMTKNQVSLTCLVKGFYPSDIAVEWESNGQPENNYKTTPPVLDSDGSFFLYSKLTVDKSRWQQGNVFSCSVLHEALHSHYTQKSLSLSPGK light: DIQMTQSPSSLSASVGDTVTITCQANGYLNWYQQRRGKAPKLLIYDGSKLERGVPSRFSGRRWGQEYNLTINNLQPEDIATYFCQVYEFVSPGTNLDLKRTVAAPSVFIFPPSDEQLKSGTASVVCLLNNFYPREAKVQWKVDNALQSGNSQESVTEQDSKDSTYSLSSTLTLSKADYEKHKVYACEVTHQGLSSPVTKSFNRGEC	1.02 A450	0.88 A450	1.04 A450	0.06 A450
1.1.25-1 (antibody, human IgG1, kappa) heavy: QVQLLQSGAAVTKPGASVRVSCEASGYNIRDYFIHWWRQAPGQGLQWVGWINPKTGQPNNPRQFQGRVSLTRHASWDFDTFSFYMDLKALRSDDTAVYFCARQRSDYWDFDVWGSGTQVTVSSASTKGPSVFPLAPSSKSTSGGTAALGCLVKDYFPEPVTVSWNSGALTSGVHTFPAVLQSSGLYSLSSVVTVPSSSLGTQTYICNVNHKPSNTKVDKKVEPKSCDKTHTCPPCPAPELLAGPDVFLFPPKPKDTLMISRTPEVTCVVVDVSHEDPEVKFNWYVDGVEVHNAKTKPREEQYNSTYRVVSVLTVLHQDWLNGKEYKCKVSNKALPLPEEKTISKAKGQPREPQVYTLPPSREEMTKNQVSLTCLVKGFYPSDIAVEWESNGQPENNYKTTPPVLDSDGSFFLYSKLTVDKSRWQQGNVFSCSVLHEALHSHYTQKSLSLSPGK light: DIQMTQSPSSLSASVGDTVTITCQANGYLNWYQQRRGKAPKLLIYDGSKLERGVPSRFSGRRWGQEYNLTINNLQPEDIATYFCQVYEFVVPGTNVDLKRTVAAPSVFIFPPSDEQLKSGTASVVCLLNNFYPREAKVQWKVDNALQSGNSQESVTEQDSKDSTYSLSSTLTLSKADYEKHKVYACEVTHQGLSSPVTKSFNRGEC	0.92 A450	0.9 A450	1.01 A450	0.07 A450
1.1.23-1 (antibody, human IgG1, kappa) heavy: QVQLLQSGAAVTKPGASVRVSCEASGYNIRDYFIHWWRQAPGQGLQWVGWINPKTGQPNNPRQFQGRVSLTRHASWDFDTFSFYMDLKALRSDDTAVYFCARQRSDYWDFDVWGSGTQVTVSSASTKGPSVFPLAPSSKSTSGGTAALGCLVKDYFPEPVTVSWNSGALTSGVHTFPAVLQSSGLYSLSSVVTVPSSSLGTQTYICNVNHKPSNTKVDKKVEPKSCDKTHTCPPCPAPELLAGPDVFLFPPKPKDTLMISRTPEVTCVVVDVSHEDPEVKFNWYVDGVEVHNAKTKPREEQYNSTYRVVSVLTVLHQDWLNGKEYKCKVSNKALPLPEEKTISKAKGQPREPQVYTLPPSREEMTKNQVSLTCLVKGFYPSDIAVEWESNGQPENNYKTTPPVLDSDGSFFLYSKLTVDKSRWQQGNVFSCSVLHEALHSHYTQKSLSLSPGK light: DIQMTQSPSSLSASVGDTVTITCQANGYLNWYQQRRGKAPKLLIYDGSKLERGVPSRFSGRRWGQEYNLTINNLQPEDIATYFCQVYEFVTPGTNLDLKRTVAAPSVFIFPPSDEQLKSGTASVVCLLNNFYPREAKVQWKVDNALQSGNSQESVTEQDSKDSTYSLSSTLTLSKADYEKHKVYACEVTHQGLSSPVTKSFNRGEC	0.95 A450	0.9 A450	1.07 A450	0.06 A450
